Experimental data reported in PMC5701055 (Nature Communications, 2017).

Molecular target: the molecule itself
Assay: crystal structure

B1: soluble ectodomain of human aminopeptidase N (hAPN), residues 66–967, WT (receptor)
chain: DQSKAWNRYRLPNTLKPDSYRVTLRPYLTPNDRGLYVFKGSSTVRFTCKEATDVIIIHSKKLNYTLSQGHRVVLRGVGGSQPPDIDKTELVEPTEYLVVHLKGSLVKDSQYEMDSEFEGELADDLAGFYRSEYMEGNVRKVVATTQMQAADARKSFPCFDEPAMKAEFNITLIHPKDLTALSNMLPKGPSTPLPEDPNWNVTEFHTTPKMSTYLLAFIVSEFDYVEKQASNGVLIRIWARPSAIAAGHGDYALNVTGPILNFFAGHYDTPYPLPKSDQIGLPDFNAGAMENWGLVTYRENSLLFDPLSSSSSNKERVVTVIAHELAHQWFGNLVTIEWWNDLWLNEGFASYVEYLGADYAEPTWNLKDLMVLNDVYRVMAVDALASSHPLSTPASEINTPAQISELFDAISYSKGASVLRMLSSFLSEDVFKQGLASYLHTFAYQNTIYLNLWDHLQEAVNNRSIQLPTTVRDIMNRWTLQMGFPVITVDTSTGTLSQEHFLLDPDSNVTRPSEFNYVWIVPITSIRDGRQQQDYWLIDVRAQNDLFSTSGNEWVLLNLNVTGYYRVNYDEENWRKIQTQLQRDHSAIPVINRAQIINDAFNLASAHKVPVTLALNNTLFLIEERQYMPWEAALSSLSYFKLMFDRSEVYGPMKNYLKKQVTPLFIHFRNNTNNWREIPENLMDQYSEVNAISTACSNGVPECEEMVSGLFKQWMENPNNNPIHPNLRSTVYCNAIAQGGEEEWDFAWEQFRNATLVNEADKLRAALACSKELWILNRYLSYTLNPDLIRKQDATSTIISITNNVIGQGLVWDFVQSNWKKLFNDYGGGSFSFSNLIQAVTRRFSTEYELQQLEQFKKDNEETGFGSGTRALEQALEKTKANIKWVKENKEVVLQWFTENSK
- binding result: binds
